Results reported in article PMC10330345 (2023).

Target: BTN3A1 272-513 (Homo sapiens, UniProt O00481)
Assay: ITC

Sequence of BTN3A1 272-513 (O00481 272-513): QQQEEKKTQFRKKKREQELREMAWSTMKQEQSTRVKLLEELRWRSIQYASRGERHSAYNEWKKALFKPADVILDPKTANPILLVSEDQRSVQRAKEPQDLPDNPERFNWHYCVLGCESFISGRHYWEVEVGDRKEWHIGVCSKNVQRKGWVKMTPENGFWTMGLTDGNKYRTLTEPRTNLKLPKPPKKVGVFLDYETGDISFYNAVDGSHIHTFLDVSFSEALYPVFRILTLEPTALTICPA

Kd | Binder
710 nM | BTN2A1 271-527 (protein) KLQKEKKILSGEKEFERETREIALKELEKERVQKEEELQVKEKLQEEGRARRTFLHAVDVVLDPDTAHPDLFLSEDRRSVRRCPFRHLGESVPDNPERFDSQPCVLGRESFASGKHYWEVEVENVIEWTVGVCRDSVERKGEVLLIPQNGFWTLEMHKGQYRAVSSPDRILPLKESLCRVGVFLDYEAGDVSFYNMRDRSHIYTCPRSAFSVPVRPFFRLGCEDSPIFICPALTGANGVTVPEEGLTLHRVGTHQSL
1160 nM | BTN2A1 271-527 (protein) KLQKEKKILSGEKEFERETREIALKELEKERVQKEEELQVKEKLQEEGRWRRTFLHAVDVVLDPDTAHPDLFLSEDRRSVRRCPFRHLGESVPDNPERFDSQPCVLGRESFASGKHYWEVEVENVIEWTVGVCRDSVERKGEVLLIPQNGFWTLEMHKGQYRAVSSPDRILPLKESLCRVGVFLDYEAGDVSFYNMRDRSHIYTCPRSAFSVPVRPFFRLGCEDSPIFICPALTGANGVTVPEEGLTLHRVGTHQSL
670 nM | BTN2A1 271-527 (protein) KLQKEKKILSGEKEFERETREIALKELEKERVQKEEELQVKEKLQEELRARRTFLHAVDVVLDPDTAHPDLFLSEDRRSVRRCPFRHLGESVPDNPERFDSQPCVLGRESFASGKHYWEVEVENVIEWTVGVCRDSVERKGEVLLIPQNGFWTLEMHKGQYRAVSSPDRILPLKESLCRVGVFLDYEAGDVSFYNMRDRSHIYTCPRSAFSVPVRPFFRLGCEDSPIFICPALTGANGVTVPEEGLTLHRVGTHQSL
